Reference: the nanobody polyreactivity screen of Harvey et al. (2022)

Assay: yeast display, Sf9 membrane polyspecificity reagent, FACS + sequencing; frameworks hold sequencing errors
Method in brief: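 Using colony PCR, genes from sorted yeast display clones were amplified, then sequenced on MiSeq at 2 × 250 and filtered by CDR length. The clones had been stained with 10% biotinylated, detergent-solubilized Sf9 membrane reagent for 1 hour at 4 °C and sorted by FACS into low and high (top ~1%) gates on anti-HA and streptavidin fluorescence. Polyreactivity labels come from the gate of origin.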

QVQLVESGGGLVQAGGSLRLSCAASGRTFIVYPMGWYRQAPGKERELVAAISKRGGSTYYADSVKGRFTISRDNAKNPVYLQMNRLKPDDTAVYYCNAALSVELGYAYWGQGTQVTVSS
polyreactivity (PSR sort gate): high polyreactivity

QVQLVESGGGLVQAGGSLRLSSAASGRTFRRYAMGWYRQAPGKERELVATITNAGSTYYADSVKGRFTISRDNAKNTVYLPMNSLKPEDTAVYYCAARVPYKSDYWGQGTQVTVSS
polyreactivity (PSR sort gate): low polyreactivity

QVQLVESGGGLVQAGGSLRLSCAASGSTFRIYAMGWYRQAPGKERELVARISWNGGRTYYADSVKGRFTISRDNAKNTVYLQMNSLKTEDTAVYYCNALVPPGYDYWGQGTQVTVSS
polyreactivity (PSR sort gate): high polyreactivity

QVQLVESCGGLVQAGGSLRLTCAASGSTFTIYAMGWYRQAPGKERELVAVISSSGGSTYYADSVKGRFTISRDYAKNTVYLQMNSLKPEDTAVYYCAADTRYFGGYLTLYYWGQGTQVTVSS
polyreactivity (PSR sort gate): low polyreactivity

QVQLVESGGGLVQAGGSLRLSCAASGSTYEYNAMGWSRQAPGKERELVASSTNYADSVKGRFTISRDNAKNTVYLQMNSLKPEDTAVYYCAREQCVNRNHDYWGQGTQVTVSS
polyreactivity (PSR sort gate): low polyreactivity

QVQLVESGGGLVQAGGSLRLSCAASGSTFSNYAMGWYRQAPGKDRELVAGIDWSGGSTYYADSVKGRFTISRDNAKNTVYLQMNSLKPEDTAVYYSAKRVWYHGRKLRGYYWGQGTQVTVSS
polyreactivity (PSR sort gate): low polyreactivity

QVQLVESGGGLVQAGGSLRLSCAASGRILRYNALGWYRQAPGTERELVASISGNGGSTYYADSVKGRVTISRDNAKNTVYLQMNSLKPEDTALYYCNKYYYSSRGQKEYDYWGQGTQVTVSS
polyreactivity (PSR sort gate): low polyreactivity

QVQLLESWGGLVHAGGSVRLSCAASGSIFGYNAMGWYRESPGKEREWVAAISWDGGSTYYADSVKGRFTISRDNAKYNVFLQMNSLKPEDTAVYYCAAEGLRFVYEYWGQGTQVTVSS
polyreactivity (PSR sort gate): low polyreactivity

QVHLVESGGGLVQEGGSLRISCAASGSSFSHYTMGWYIQAPGKERELVAAISYRGGSTYYADSLKGRFTISRDNAKNTVYFQSNSLKPEDTAVYYCAAVGYYSTVRRYDYWGQRTQVTVSS
polyreactivity (PSR sort gate): low polyreactivity

QVQLVESGGGLVQAGGSLRLSCAASGSTFYANAMGWYRQAPGKERELVADISFSGASTFYADSVKGRFTISRDNAKNTVYLQMNSLKPEDTAVYYCATDNPSVVGFDYWGQGTQVTVSS
polyreactivity (PSR sort gate): low polyreactivity

QVQLVESGGGLVQAGGSLRLSCAASGNTLIQYAMGWYRQAPGKERELVAGISGSDDSTYYADSVKGRFTISRDNAKNTVYLQMNSLKPEDTAVYYCAAQVDRWKGREHDYWGQGTQVTVSS
polyreactivity (PSR sort gate): low polyreactivity

QVQLVESGGGLVQAGGSLRLSCAASGITLKRYAMGWYRQAPGTERELVAAITTSGGSTYYADSVKGRFTISRDTAKNTVYLQMNSLKPEDTAVYYCNAEDYWGKYYYWGQGTQVTVSS
polyreactivity (PSR sort gate): low polyreactivity

QVQLVESGGGLVQAGGSLRLSCAASGLTFGHYAMGWYRQAPGKERELVATISSRGVSTRYADSVKGRFTISRDTAKNTVYLQMNSLKPEDTAVYYWHARDYTWGKYYSSKIGYYYWGQGTQVTVSS
polyreactivity (PSR sort gate): high polyreactivity

QVQLVESGGGLVQAGGSLRLSCAASGFTFYHNAMGWYRPAPGKERELVAAITWDSGSTYYADSVKGRFTISRDNAKNTAYLQMNSLKPEDPAVYYCAADIASGYYWYDYWGQGTQVTVSS
polyreactivity (PSR sort gate): low polyreactivity

QVQLVESGGGLVQAGGSLRLSCAASGSTFIFNTMGWYRQAPGKERELVATITGSGGSTYYADSVKGRFTISRDNAKNTVYLQMNSLKPEDTAVYYCAAVGDQNEYDYWGQGTQVTVSS
polyreactivity (PSR sort gate): low polyreactivity

QVHLVESGGGLVQAGGSLRLSCAASGSTIVRYGMGWYRQAPGKERELVAAITSTGDSTYYADSVKGRFTISRDNAKNTVYLQMNSLKPEDTAVYYCATQSSVLSWWYDYWGQGTEVTVSS
polyreactivity (PSR sort gate): low polyreactivity

QVQLVESGGGLVQAGGSLRLSCADCGSIFSSNAKGWYRQEPGKERELVAAISRSACSTYYADSVKGRFTISRDIAKNTVYLQMNSLKQEDTAVYYCNGVTRLGTYDYWGQGSQVTVSS
polyreactivity (PSR sort gate): high polyreactivity
